Source: patent US20080119424A1 (published 2008)

T1: endogenous RARα (Retinoic Acid Receptor alpha) of mouse cells (mouse (endogenous in mouse embryonic …, UniProt P11416 1-462, limits assumed))
T1 construct: Endogenous protein detected by immunoblot with anti-RARα (C-20)
T1 sequence (looked up): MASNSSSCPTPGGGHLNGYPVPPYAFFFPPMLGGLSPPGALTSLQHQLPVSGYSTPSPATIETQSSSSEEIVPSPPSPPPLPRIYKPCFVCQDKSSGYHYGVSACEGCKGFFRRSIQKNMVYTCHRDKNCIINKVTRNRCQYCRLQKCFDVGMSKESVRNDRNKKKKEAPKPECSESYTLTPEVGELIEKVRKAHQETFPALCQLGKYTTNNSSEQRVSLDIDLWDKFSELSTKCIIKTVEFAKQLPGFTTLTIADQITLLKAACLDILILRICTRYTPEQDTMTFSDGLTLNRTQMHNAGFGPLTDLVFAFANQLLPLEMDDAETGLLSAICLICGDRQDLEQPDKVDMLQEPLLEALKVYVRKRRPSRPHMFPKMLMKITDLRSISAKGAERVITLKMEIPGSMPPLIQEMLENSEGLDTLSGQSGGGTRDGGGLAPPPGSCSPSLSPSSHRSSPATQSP

T2: VP16-RARα LBD (UniProt P10276 154-462)
T2 construct: domain: LBD
T2 sequence: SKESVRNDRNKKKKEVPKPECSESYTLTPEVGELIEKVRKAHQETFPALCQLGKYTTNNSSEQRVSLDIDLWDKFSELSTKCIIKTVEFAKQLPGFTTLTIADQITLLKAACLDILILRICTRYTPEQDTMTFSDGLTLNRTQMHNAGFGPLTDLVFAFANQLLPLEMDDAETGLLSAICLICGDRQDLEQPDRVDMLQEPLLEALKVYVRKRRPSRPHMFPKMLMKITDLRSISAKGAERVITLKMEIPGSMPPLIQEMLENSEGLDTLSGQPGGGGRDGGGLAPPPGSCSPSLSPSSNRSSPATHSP


Tests used:
[1] = target: T1, endogenous RARα (Retinoic Acid Receptor …); assay: co-immunoprecipitation, immunoblot for RARα
Method: Proteins were transferred to polyvinylidine difluoride membranes (Immobilon P, Millipore) and Western blots were probed with the indicated antibodies. For TAP (co-)immunoprecipitations cells were lysed in ELB buffer (0.25 M NaCl, 0.1% NP-40, 50 mM HEPES pH 7.3) supplemented with protease inhibitors and PMSF.

VP16-RARα LBD = target: T2, VP16-RARα LBD; assay: mammalian two-hybrid assay (luciferase) in the presence of RA

Binder	binding result [1]	binding result (VP16-RARα LBD)
TAP-PRAME-LREVV mutant protein (other, not shown: TAP tag) MERRRLRGSIQSRYISMSVWTSPRRLVELAGQSLLKDEALAIAALELLPRELFPPLFMAAFDGRHSQTLKAMVQAWPFTCLPLGVLMKGQHLHLETFKAVLDGLDVLLAQEVRPRRWKLQVLDLRKNSHQDFWTVWSGNRASLYSFPEPEAAQPMTKKRKVDGLSTEAEQPFIPVEVLVDLFLKEGACDELFSYLIEKVKRKKNVLRLCCKKLKIFAMPMQDIKMILKMVQLDSIEDLEVTCTWKLPTLAKFSPYLGQMINLRRLLLSHIHASSYISPEKEEQYIAQFTSQFLSLQCLQALYVDSLFFLRGRLDQLLRHVMNPLETLSITNCRLSEGDVMHLSQSPSVSQLSVLSLSGVMLTDVSPEPLQALLERASATLQDLVFDECGITDDQLLALLPSLSHCSQLTTLSFYGNSISISALQSLLQHLIGLSNLTHVLYPVPLESYEDIHGTLHLERLAYLHARLREVVCELGRPSMVWLSANPCPHCGDRTFYDPEPILCPCFMPN	no binding	
PRAME-ΔLXXLL (other, also called PRAME mutant in which all 7 NR boxes were mutated) MERRRLRGSIQSRYISMSVWTSPRRLVELAGQSLLKDEALAIAALELLPRELFPPLFMAAFDGRHSQTLKAMVQAWPFTCLPLGVLMKGQHLHLETFKAVLDGLDVVVAQEVRPRRWKLQVLDLRKNSHQDFWTVWSGNRASLYSFPEPEAAQPMTKKRKVDGLSTEAEQPFIPVEVLVDLFLKEGACDELFSYLIEKVKRKKNVLRLCCKKLKIFAMPMQDIKMILKMVQLDSIEDLEVTCTWKLPTLAKFSPYLGQMINVRRLLLSHIHASSYISPEKEEQYIAQFTSQFLSLQCLQALYVDSLFFLRGRLDQVVRHVMNPLETLSITNCRLSEGDVMHLSQSPSVSQLSVLSLSGVMLTDVSPEPVQALLERASATLQDLVFDECGITDDQLLAVVPSLSHCSQLTTLSFYGNSISISALQSVVQHLIGLSNLTHVLYPVPLESYEDIHGTLHLERLAYLHARLREVVCELGRPSMVWLSANPCPHCGDRTFYDPEPILCPCFMPN	no binding	
Gal4-… (416-509) (other, not shown: large carriers; small tags and cut ends, also called box 7 mutant) NSISISALQSLLQHLIGLSNLTHVLYPVPLESYEDIHGTLHLERLAYLHARLREVVCELGRPSMVWLSANPCPHCGDRTFYDPEPILCPCFMPN		no binding
